Patent US6790610B2, “Alzheimer's disease, secretase, APP substrates therefor, and uses therefor” (Pharmacia & Upjohn Company, priority 1998, dated 2004)
Where a SMILES comes first, the peptide text is derived from it. [ ]: non-standard residue; d: D form. The star is where a group is joined. Sta = CC(C)C[C@H](N)[C@@H](O)CC(=O)O; Isovaleryl = CC(C)CC(=O)*

Legend:
[1] = molecular target: T1, Recombinant human Asp2(a) (Homo sapiens, UniProt P56817); test: β-Secretase assay with synthetic peptide substrates (RP-HPLC); type: biochemical
T1 construct: made in house; β-octylglucoside membrane extract purified over Mono Q and Mono S
Procedure: Recombinant human Asp2(a) prepared in CHO cells and purified as described in Example 11 was used to assay Asp2(a) proteolytic activity directly. Activity assays for Asp2(a) were performed using synthetic peptide substrates containing either the wild-type APP β-secretase site (SEVKM ↓DAEFR; SEQ ID NO: 64), the Swedish KM→NL mutation (SEVNL↓DAEFR; SEQ ID NO: 63), or the Aβ40 and 42 γ-secretase sites (RRGGVV↓IA↓TVIVGER; SEQ ID NO: 65). Reactions were performed in 50 mM 2-[N-morpholino]ethane-sulfonate (“Na-MES,” pH 5.5) containing 1% β-octylglucoside, […] peptide substrate, and recombinant Asp2(a) (1-5 μg protein) for various times at 37° C. The reaction products were quantified by RP-HPLC using a linear gradient from 0-70 B over 30 minutes (A=0.1% TFA in water, B=0.1% TFA/10% water/90% AcCN). The elution profile was monitored by absorbance at 214 nm. […] Percent hydrolysis of the peptide substrate was calculated by comparing the integrated peak areas for the two product peptides and the starting material derived from the absorbance at 214 nm. […]
The specificity of the protease cleavage reaction was determined by performing the β-secretase assay in the presence of 8 μM pepstatin A and the presence of a cocktail of protease inhibitors (10 μM leupeptin, 10 μM E64, and 5 mM EDTA). […]

Hu-Asp2(b) = molecular target: T2, Hu-Asp2(b) (Homo sapiens, UniProt P56817); test: β-Secretase proteolysis assay with Hu-Asp2(b); type: biochemical; conditions: identical assay conditions to Asp2(a)
T2 construct: made in house; host or cells: CHO-K1 transfected with pcDNA3.1(+)Hygro/Hu-Asp2(b); β-octylglucoside extract purified over Mono Q and Mono S
Procedure: Recombinant human Asp2(a) prepared in CHO cells and purified as described in Example 11 was used to assay Asp2(a) proteolytic activity directly. Activity assays for Asp2(a) were performed using synthetic peptide substrates containing either the wild-type APP β-secretase site (SEVKM ↓DAEFR; SEQ ID NO: 64), the Swedish KM→NL mutation (SEVNL↓DAEFR; SEQ ID NO: 63), or the Aβ40 and 42 γ-secretase sites (RRGGVV↓IA↓TVIVGER; SEQ ID NO: 65). Reactions were performed in 50 mM 2-[N-morpholino]ethane-sulfonate (“Na-MES,” pH 5.5) containing 1% β-octylglucoside, […] peptide substrate, and recombinant Asp2(a) (1-5 μg protein) for various times at 37° C. The reaction products were quantified by RP-HPLC using a linear gradient from 0-70 B over 30 minutes (A=0.1% TFA in water, B=0.1% TFA/10% water/90% AcCN). The elution profile was monitored by absorbance at 214 nm. In preliminary experiments, the two product peaks which eluted before the intact peptide substrate, were confirmed to have the sequence DAEFR (SEQ ID NO: 72)and SEVNL (SEQ.ID NO: 73) using both Edman sequencing and MADLI-TOF mass spectrometry. Percent hydrolysis of the peptide substrate was calculated by comparing the integrated peak areas for the two product peptides and the starting material derived from the absorbance at 214 nm. […]

T1 sequence (P56817 46-501): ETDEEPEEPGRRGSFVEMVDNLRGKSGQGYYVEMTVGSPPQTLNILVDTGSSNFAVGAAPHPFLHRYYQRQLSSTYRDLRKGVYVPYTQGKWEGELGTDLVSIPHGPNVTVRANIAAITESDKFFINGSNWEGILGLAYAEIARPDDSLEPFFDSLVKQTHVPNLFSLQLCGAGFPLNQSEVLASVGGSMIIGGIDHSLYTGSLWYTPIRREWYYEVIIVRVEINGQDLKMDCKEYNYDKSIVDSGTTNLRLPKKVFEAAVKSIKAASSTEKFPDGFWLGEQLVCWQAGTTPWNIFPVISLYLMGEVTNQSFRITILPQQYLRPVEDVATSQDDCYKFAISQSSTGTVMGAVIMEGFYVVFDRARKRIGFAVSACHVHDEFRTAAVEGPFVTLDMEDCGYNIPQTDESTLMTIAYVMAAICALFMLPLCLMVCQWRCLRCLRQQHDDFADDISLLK
T2 sequence (P56817 46-476 isoform P56817-2): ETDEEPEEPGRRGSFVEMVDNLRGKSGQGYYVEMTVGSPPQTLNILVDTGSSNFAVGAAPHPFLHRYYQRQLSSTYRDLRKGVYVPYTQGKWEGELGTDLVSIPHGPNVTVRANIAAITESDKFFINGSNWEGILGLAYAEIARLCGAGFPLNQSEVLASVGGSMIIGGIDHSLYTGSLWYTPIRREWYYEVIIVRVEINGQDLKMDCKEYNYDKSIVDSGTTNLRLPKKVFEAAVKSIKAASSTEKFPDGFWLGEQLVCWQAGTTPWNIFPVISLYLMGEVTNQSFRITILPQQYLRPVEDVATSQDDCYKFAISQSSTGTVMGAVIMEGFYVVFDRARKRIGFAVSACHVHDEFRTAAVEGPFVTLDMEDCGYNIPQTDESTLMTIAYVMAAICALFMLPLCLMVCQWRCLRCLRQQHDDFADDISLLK

CC(C)CC(=O)N[C@H](C(=O)N[C@H](C(=O)N[C@@H](CC(C)C)[C@@H](O)CC(=O)N[C@@H](C)C(=O)N[C@@H](CC(C)C)[C@@H](O)CC(=O)O)C(C)C)C(C)C [pepstatin A] (Isovaleryl-VV[Sta]A[Sta]-OH)
sensitivity of proteolytic activity to inhibitor ([1]; 8 μM pepstatin A): insensitive

SEVNLDAEFR (OTHER INFORMATION: Description of Artificial Sequence: synthetic) [Swedigh β-secretase peptide, synthetic peptide substrate containing the Swedish KM→NL mutation of the APP β-secretase site]
cleavage of peptide substrate (Hu-Asp2(b)): cleaves | proteolysis relative to wild type APP peptide ([1]; after 6 hours, pH 5.5, 37° C.): about 10 fold
